The values that follow come from the supplement of paper PMC7877785.

This data set is described as follows: self-splicing fitness, log relative to wild type (ln ratio); higher = more splicing; Tetrahymena group I intron in knt gene, E. coli kanamycin selection, DiMSum; sequences stand for … in CUCUCU…GGAGGGAAAAGUUAUCAGGCAUGCACCUGGUAGCUAGUCUUUAAACCAAUAGAUUGCAUCGGUUUAAAAGGCAAGACCGUCAAAUUGCGGGAAAGGGGUCAACAGCCGUUCAGUACCAAGUCUCAGGGGAAACUUUGAGAUGGCCUUGCAAAGGGUAUGGUAAUAAGCUGACGGACAUGGUCCUAACCACGCAGCCAAGUCCUAAGUCAACAGAUCUUCUGUUGAUAUGGAUGCAGUUCACAGACUAAAUGUCGGUCGGGGAAGAUGUAUUCUUCUCAUAAGAUAUAGUCGGACCUCUCCUUAAUGGGAGCUAGCGGAUGAAGUGAUGCAACACUGGAGCCGCUGGGAACUAAUUUGUAUGCGAAAGUAUAUUGAUUAGUUUUGGAGUACUCGUGGUCG
The essentials:
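Pooled colonies went to amplicon sequencing on an Illumina HiSeq 2500 after six replicate transformations. The plates were LB agar with 100 μg/mL carbenicillin, 50 μM IPTG and 0.2% rhamnose, with or without 25 μg/mL kanamycin, incubated overnight at 37°C or 30°C. The E. coli BL21(DE3) library had all eight P1ex-region intron nucleotides randomised, the intron placed in the knt kanamycin-resistance gene on pET-22b(+). DiMSum fitness is the error-weighted combination of replicate fold changes, kanamycin against none, normalised to wild type.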

± gives the uncertainty stated by the source.

For the sequence CCACAGCAAUAUUACGCACG, the “self-splicing fitness (ln)” value is -0.551 ± 0.063 (30 °C) and -0.626 ± 0.093 (37 °C). On to UCCGAGCAAUAUUACGUGAG, for which the “self-splicing fitness (ln)” value runs as follows: (30 °C) -2.83 ± 0.19; (37 °C) -2.43 ± 0.23. As for CCACAGCAAUAUUACGAAGG, the “self-splicing fitness (ln)” value is, setting by setting: (30 °C) -3.62 ± 0.13; (37 °C) -2.92 ± 0.16. In the case of UUUGAGCAAUAUUACGUAUC, the “self-splicing fitness (ln)” value runs as follows: (30 °C) -4 ± 0.29; (37 °C) -2.45 ± 0.23. For the sequence AGGAAGCAAUAUUACGGGCG, the “self-splicing fitness (ln)” value was -0.564 ± 0.11 (30 °C) and -0.865 ± 0.15 (37 °C). Take AAUGAGCAAUAUUACGACAC: for the setting “30 °C”, the “self-splicing fitness (ln)” value was -2.71 ± 0.31. For GACGAGCAAUAUUACGAGCG, the “self-splicing fitness (ln)” value (30 °C) is -1.88 ± 0.23. For the sequence GGACAGCAAUAUUACGCACA, the “self-splicing fitness (ln)” value was -0.778 ± 0.09 (30 °C) and 0.0888 ± 0.1 (37 °C). The matching figures for UUAAAGCAAUAUUACGCAGG: -0.165 ± 0.12 and -0.592 ± 0.15. With GAUAAGCAAUAUUACGGUGA, the “self-splicing fitness (ln)” value was -1.61 ± 0.093 (30 °C) and -1.1 ± 0.12 (37 °C). For UCGGAGCAAUAUUACGAAGA, the “self-splicing fitness (ln)” value (37 °C) was -2.3 ± 0.42.

In the case of UUAUAGCAAUAUUACGGCUA, the “self-splicing fitness (ln)” value was -0.836 ± 0.15 (30 °C) and -0.316 ± 0.14 (37 °C).

In the case of CUCUAGCAAUAUUACGAACU, the “self-splicing fitness (ln)” value (37 °C) is -4.2 ± 0.42. As for CUGUAGCAAUAUUACGAGGA, the “self-splicing fitness (ln)” value by setting is: (30 °C) -2.78 ± 0.41; (37 °C) -1.62 ± 0.32.

Regarding UAUCAGCAAUAUUACGUUCG, the “self-splicing fitness (ln)” value by setting is: (30 °C) -0.844 ± 0.085; (37 °C) 0.113 ± 0.11. On to GAGAAGCAAUAUUACGGAGC, for which the “self-splicing fitness (ln)” value was -3.83 ± 0.4 (30 °C) and -1.84 ± 0.23 (37 °C). With UUCUAGCAAUAUUACGGCGA, the “self-splicing fitness (ln)” value was -0.698 ± 0.14 (30 °C) and 0.493 ± 0.18 (37 °C). In the case of UUCAAGCAAUAUUACGAGUU, the “self-splicing fitness (ln)” value runs as follows: (30 °C) -2.6 ± 0.12; (37 °C) -0.389 ± 0.099.

For the sequence UUCCAGCAAUAUUACGAAUU, the “self-splicing fitness (ln)” value runs as follows: (30 °C) -3.98 ± 0.18; (37 °C) -2.05 ± 0.14.

Consider UGCGAGCAAUAUUACGACAA, for which the “self-splicing fitness (ln)” value is -1.55 ± 0.3 (30 °C) and -0.809 ± 0.2 (37 °C). Take CCUUAGCAAUAUUACGUAGC: the “self-splicing fitness (ln)” value is -2.7 ± 0.18 (30 °C) and -1.8 ± 0.21 (37 °C). AUAGAGCAAUAUUACGCAGG: the “self-splicing fitness (ln)” value runs as follows: (30 °C) -3.06 ± 0.2; (37 °C) -1.86 ± 0.23. The matching figures for UCAUAGCAAUAUUACGACGA: -0.24 ± 0.096 and -0.532 ± 0.11. The matching figures for CGCCAGCAAUAUUACGGCGA: -3.29 ± 0.23 and -1.84 ± 0.18. CGGUAGCAAUAUUACGGCAA: the “self-splicing fitness (ln)” value runs as follows: (30 °C) -2.22 ± 0.19; (37 °C) -2.52 ± 0.28. Regarding GCUAAGCAAUAUUACGUACA, the “self-splicing fitness (ln)” value is -1.38 ± 0.1 (30 °C) and -0.974 ± 0.13 (37 °C). On the same counts, the results for GAGCAGCAAUAUUACGAUAU are -2.17 ± 0.13 and -1.17 ± 0.15.

For the sequence AAUUAGCAAUAUUACGUGAG, the “self-splicing fitness (ln)” value (30 °C) is -1.71 ± 0.077 and the “self-splicing fitness (ln)” value (37 °C) was -0.654 ± 0.1. On the same counts, the results for GUCAAGCAAUAUUACGAGCA are -1 ± 0.35 and -2.29 ± 0.28.

In the case of UACAAGCAAUAUUACGCUGC, the “self-splicing fitness (ln)” value reads like this: (30 °C) -2.03 ± 0.19; (37 °C) -0.919 ± 0.32. Regarding CUACAGCAAUAUUACGCGUU, the “self-splicing fitness (ln)” value runs as follows: (30 °C) -4.43 ± 0.23; (37 °C) -2.37 ± 0.21. For the sequence ACCCAGCAAUAUUACGGAGU, the “self-splicing fitness (ln)” value is -3.7 ± 0.14 (30 °C) and -1.8 ± 0.1 (37 °C). The matching figures for CGAGAGCAAUAUUACGGUAG: -1.73 ± 0.23 and -1.65 ± 0.33. In the case of CGGUAGCAAUAUUACGCCUC, the “self-splicing fitness (ln)” value is, setting by setting: (30 °C) -2.36 ± 0.38; (37 °C) -0.282 ± 0.29.

For the sequence UCCGAGCAAUAUUACGGAAG, the “self-splicing fitness (ln)” value runs as follows: (30 °C) -3.67 ± 0.44; (37 °C) -1.82 ± 0.28. On the same counts, the results for UAGUAGCAAUAUUACGAGGG are -3.04 ± 0.42 and -2.03 ± 0.36. On the same counts, the results for ACAUAGCAAUAUUACGUGGA are -3.3 ± 0.23 and -2.37 ± 0.14.

As for AGCAAGCAAUAUUACGAGAU, the “self-splicing fitness (ln)” value (30 °C) is -3.64 ± 0.24 and the “self-splicing fitness (ln)” value (37 °C) is -1.27 ± 0.21. Consider CUGAAGCAAUAUUACGACAU, for which the “self-splicing fitness (ln)” value by setting is: (30 °C) -0.393 ± 0.012; (37 °C) 0.115 ± 0.033.
